# Experimental data taken from the supplement of paper PMC10724198.
# ± gives the standard deviation of the averaged measurements.
# System: Saccharomyces cerevisiae
# Experiment: protein stability index of tFT-peptide fusion (C-terminal peptide) (PSI (0-1 scale)); higher = more stable (slower turnover)
# Details: genetic background: wild type; temperature: 30 C
# 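Also: PSI is a weighted mean of sequencing reads over stability bins, variants kept only with over 10 reads, mCherry proximal and sfGFP distal, peptide attached via GGGS linker.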
row,Sequence,protein stability index
1,RFARQSNTFSQS,0.659 ± 0.013
2,HGLLLRDRPLPT,0.665 ± 0.024
3,SGCPGPNVPRVP,0.705 ± 0.014
4,TLATHCDVHFTR,0.734 ± 0.077
5,WGGGGGGDCVGA,0.6732 ± 0.0029
6,GVIGFNSLYGIA,0.632 ± 0.027
7,RSRRDTDFGLLI,0.717 ± 0.11
8,PPRPLPPSLPPP,0.695 ± 0.037
9,NRHQVSKTEIKL,0.72 ± 0.016
10,ILGGVSPSAFVI,0.664 ± 0.022
11,MVCSFVSLLGRF,0.69 ± 0.01
12,ERSDRLWEVSKG,0.685 ± 0.035
13,GTSCPCGGALRP,0.776 ± 0.035
14,KFMKEITIDGLT,0.709 ± 0.055
15,IFWLFLPSVPFL,0.702 ± 0.12
16,RFNLLLSATEDR,0.716 ± 0.07
17,GRWGGRLSWAPG,0.628 ± 0.03
18,KINAKIYGSEKG,0.654 ± 0.015
19,WTRFSEKIVILR,0.582 ± 0.026
20,VMLSYCHNLTKI,0.646 ± 0.074
21,GYATVILYPSID,0.653 ± 0.029
22,KLREYGGLPISC,0.677 ± 0.0087
23,RVWEGGRGGDGC,0.676 ± 0.024
24,LSARPFPPLMYS,0.6968 ± 0.0025
25,SERNENKTGKVQ,0.747 ± 0.11
26,GCLFLCPLSPLI,0.685 ± 0.026

row,Sequence,protein stability index
1,KHSMGSFNNILN,0.6674 ± 0.0032
2,SHASTPSSRVIP,0.716 ± 0.01
3,VALSFYVLRRVP,0.594 ± 0.015
4,PSPLPPPPLPLS,0.5739 ± 0.0048
5,AVSCGLGAGSSA,0.645 ± 0.039
6,VRRARATLYSWL,0.693 ± 0.052
7,RRCTLVERAWRW,0.628 ± 0.039
8,RLGGGGCVWVRG,0.683 ± 0.027
9,LPASAPFPLSPP,0.7 ± 0.035
10,FSSFVLLFFSFP,0.541 ± 0.011
11,EVFVVHLLGEAS,0.574 ± 0.064
12,RKKKNRKERQKK,0.6725 ± 0.00086
13,TPPSPPLPNQLP,0.696 ± 0.27
14,YPTSLLHLHSPP,0.708 ± 0.044
15,KTKKENGRGEKN,0.697 ± 0.04
16,MQLTRKEEKSQE,0.658 ± 0.023
17,FRRYGKEAVDKD,0.696 ± 0.011
18,LPPHSPALRLPR,0.708 ± 0.0097
19,SLHSSQYTRHSG,0.673 ± 0.024
20,SRGNYKLIWSDT,0.731 ± 0.093
21,LIIMPTFDISAP,0.7273 ± 0.0059
22,PPLDLPFPSRSI,0.745 ± 0.0078
23,VFGRSFFRLFRG,0.6444 ± 0.0031
24,GAGRGRLGVGPV,0.67 ± 0.066
25,QPPPPRLPPRPP,0.622 ± 0.0027
26,SGPLPCPPLPAP,0.676 ± 0.016

row,Sequence,protein stability index
1,APPPRPPPPPQL,0.67 ± 0.031
2,GSARLPLWSLPP,0.793 ± 0.0082
3,QTYEGSKGHLRD,0.6625 ± 0.0044
4,PPSPDATPLSHI,0.678 ± 0.035
5,YAIINISRESLD,0.717 ± 0.062
6,PSSWPPPPPPLP,0.614 ± 0.022
7,GENAIVEVWAGG,0.686 ± 0.022
8,PFYTKSASPSSR,0.669 ± 0.02
9,RGPSGARRQPGL,0.6658 ± 0.0044
10,FRLLHLPALSCP,0.565 ± 0.013
11,KLNMLLYNNQEK,0.631 ± 0.039
12,GGGVLLWEGGGW,0.711 ± 0.02
13,PPRSPHLPRSSL,0.664 ± 0.069
14,SKQKSKNYEAFK,0.721 ± 0.039
15,FRGALFLLSSRV,0.571
16,GYMFLSFLKLCW,0.599 ± 0.021
17,PPPPHPPFPPRF,0.722 ± 0.047
18,LWGGVVGRVRGV,0.635 ± 0.037
19,AQTASQSPYRVG,0.731 ± 0.017
20,GLSLLVDLNVWF,0.569 ± 0.034
21,EVGGGVGGRRLM,0.636 ± 0.0099
22,GWAGRCAPGRVG,0.637 ± 0.093
23,APRCCPHLLRFR,0.655 ± 0.055
24,FHFLNLLIPFPR,0.737 ± 0.061
25,DRPPPPPRSSPL,0.753 ± 0.046
26,PTAPPRLRLSFC,0.667 ± 0.0089

row,Sequence,protein stability index
1,PKAMRPKLVVFR,0.682 ± 0.024
2,LYNVTRDTWVLS,0.66 ± 0.057
3,AGAGRGVVLGWW,0.684 ± 0.017
4,LVICPRVLRDFR,0.663 ± 0.05
5,PNESFLLPELNH,0.711 ± 0.0083
6,FLGRFLTGALWV,0.758 ± 0.12
7,GFVQGNNGFLMK,0.682 ± 0.034
8,FSLPLCAITGPQ,0.702 ± 0.056
9,LFGFLGVAACVV,0.483 ± 0.048
10,GWVFLRVARFGL,0.684 ± 0.045
11,LQPATGPQRVIS,0.665 ± 0.03
12,PLLLYFLPPLPL,0.629 ± 0.039
13,QSHNDIRDGPPR,0.679 ± 0.021
14,QKKKPEKKAKRA,0.721 ± 0.013
15,SEPADGRDRMAE,0.6885 ± 0.0054
16,APSQPPTPPPIS,0.665 ± 0.03
17,ISMSDFRLFAIW,0.6646 ± 0.0047
18,SILFMYPARNAP,0.7177 ± 0.0028
19,ACRREMISVLYT,0.624 ± 0.0075
20,DKKKNKDQKEKI,0.731 ± 0.029
21,GQSLGLPGRWYI,0.775 ± 0.06
22,GIGSSKESGGLW,0.737 ± 0.05
23,NASVRMFIRTGC,0.6971 ± 0.00097
24,SQTEAGSICTLP,0.676 ± 0.05
25,ECNESSACRNHY,0.65 ± 0.032
26,GGLGREKLGGWR,0.65 ± 0.091

row,Sequence,protein stability index
1,WGDGRGRVWEIS,0.674 ± 0.048
2,TSTQVMYVSCCL,0.63 ± 0.014
3,PTSPPPPPPPPP,0.657 ± 0.084
4,KYIGHSENATSK,0.71 ± 0.067
5,RFPFFLLPPLSS,0.65 ± 0.091
6,PPLPFAISPPPA,0.6624 ± 0.0017
7,CGACGFGLGVWV,0.701 ± 0.021
8,SPPRPPVLSPGH,0.68 ± 0.085
9,HLGRRSGAQGLF,0.699 ± 0.06
10,PPLFPPPTLPEL,0.738 ± 0.02
11,RSLPLAPPLAPL,0.742 ± 0.029
12,IRVATIQSTMYI,0.643 ± 0.016
13,REIVLQTSAAYN,0.613 ± 0.037
14,TLLSPRRHPFAR,0.674 ± 0.022
15,RCGVGGAVSFWW,0.72 ± 0.05
16,FVIAGDLYGLYV,0.658 ± 0.045
17,VGEGGGEVMGEA,0.712 ± 0.085
18,GKSYWYDSGNMM,0.752 ± 0.078
19,KKKKKKQEKNKK,0.694 ± 0.042
20,SAVHRSVPMGGG,0.666 ± 0.032
21,APLFASSASIPL,0.716 ± 0.11
22,CSPRPPPRSLHP,0.812 ± 0.024
23,GPGAGRRKSAER,0.61607 ± 0.00056
24,PPRPTPYPPLPP,0.674 ± 0.062
25,PFPPPTDQTAHR,0.728 ± 0.025
26,RFEISNLVFIPR,0.686 ± 0.033

row,Sequence,protein stability index
1,PPPPPPPALPSL,0.6668 ± 0.0034
2,LRGLVGEYRRLK,0.656 ± 0.057
3,YQLEDSNEKVEN,0.712 ± 0.085
4,GLSDLTFFKRLF,0.659 ± 0.036
5,DHNTRGYQTKSR,0.667 ± 0.031
6,REKRSVTQSTTD,0.796 ± 0.12
7,EQGLRRRVFFEV,0.644 ± 0.013
8,KVEQLPAREAPC,0.6556 ± 0.0039
9,VGCGVGGIGVLV,0.712 ± 0.1
10,LFVSLLGAFVVG,0.529 ± 0.03
11,SFLRTRPHAPLP,0.6363 ± 0.0021
12,GGIVVRGVGVRC,0.661 ± 0.04
13,SCEERVGEKVMG,0.6398 ± 0.0014
14,FLQRSLTNMNSL,0.671 ± 0.00095
15,PPPLATPTPTRP,0.688 ± 0.17
16,KKKKHKAKGKIG,0.695 ± 0.049
17,DAVWTRGGEGVW,0.718 ± 0.019
18,SLHVSSLPYALQ,0.662 ± 0.082
19,SPPPSPPTVLPI,0.683 ± 0.022
20,GGRARRGLGGPG,0.6758 ± 0.0034
21,SVMWEARTEDGS,0.756 ± 0.043
22,SGRIASQACLIW,0.671 ± 0.045
23,ILHGRSGLRELL,0.688 ± 0.023
24,NGSSFSRTVRFM,0.624 ± 0.038
25,WLFVALRGRFEF,0.59 ± 0.042
26,KKKKQKKKRKRE,0.718 ± 0.028

row,Sequence,protein stability index
1,GGVWWLGVVGGV,0.657 ± 0.081
2,SCRVSFLFFLFE,0.562 ± 0.016
3,FWECEYVIDDVD,0.69053 ± 0.00035
4,KKIDQAKETSLS,0.68 ± 0.011
5,SVVVGTVFCRSW,0.615 ± 0.015
6,LPSFPRISPPSI,0.656 ± 0.016
7,SRDMGYFFPKLK,0.655 ± 0.073
8,LPAPAGPEPPRT,0.6747 ± 0.00069
9,SVSSSVGRGLRV,0.711 ± 0.014
10,VKTNPEGDGKQE,0.671 ± 0.021
11,PPHPPRPPSPHP,0.707 ± 0.051
12,SGAGVNWGVGWG,0.714 ± 0.029
13,YPLRCPITATHA,0.616 ± 0.099
14,FLSCLLERSWSL,0.79 ± 0.044
15,LPTLPLPHRHHL,0.742 ± 0.0072
16,PQRPPPALACPP,0.703 ± 0.083
17,VVGAHLWSGFSA,0.711 ± 0.013
18,SFKSCMCLFCGV,0.659 ± 0.034
19,DCPLPPRYRAPL,0.691 ± 0.043
20,SLAFIRFPSPSP,0.668 ± 0.0083
21,VHCNLKLDASNF,0.719 ± 0.058
22,YKKLTRKKIQDK,0.781 ± 0.0088
23,GSVQHRRRDRCD,0.676 ± 0.038
24,SGVVGLGCVPWF,0.857 ± 0.2
25,VFRCSGLFFRDG,0.6621 ± 0.0033
26,KKKKKSKKKTKT,0.668 ± 0.0037

row,Sequence,protein stability index
1,KNAAGERGGKEG,0.644 ± 0.044
2,GTWGGGGWSCES,0.725 ± 0.076
3,ASFVPPYLPSSM,0.75 ± 0.17
4,GNNREGYRSAQA,0.599 ± 0.054
5,RNSPLFLESPGS,0.723 ± 0.034
6,RWGCHFWVGFVG,0.544 ± 0.046
7,WPLVGLIGVPGR,0.668 ± 0.035
8,SGRSQERMYARW,0.656 ± 0.012
9,HCVSPKPFLKSE,0.695 ± 0.045
10,CGFALFLCDGFV,0.744 ± 0.083
11,TNTQRYRKTRST,0.721 ± 0.054
12,PPPPRPLPSSNG,0.76 ± 0.049
13,GVWVGAVRGRYG,0.6625 ± 0.0061
14,SDMCLGRVFCFL,0.63 ± 0.069
15,PRLDPTSPPPHA,0.675 ± 0.0094
16,VNMMYEIWPLGN,0.624 ± 0.038
17,SSPPTHAPPLPP,0.688 ± 0.017
18,LFYFPVLSGFLA,0.578 ± 0.002
19,VVWLWGAGWGCD,0.747 ± 0.022
20,SELEADKRIKRK,0.739 ± 0.094
